Target: SELENOF’-YFP (human selenoprotein F with Sec changed to Cys, fused to enhanced yellow fluorescence protein) (human) (UniProt O60613)
Test: FRET or BRET; acceptor photobleaching in HEK293T cells co-transfected with pEYFP-N1 and pECFP-C1 constructs; YFP bleached at 515 nm, CFP read before and after; confocal microscope

UniProt O60613, sequence (O60613 32-165): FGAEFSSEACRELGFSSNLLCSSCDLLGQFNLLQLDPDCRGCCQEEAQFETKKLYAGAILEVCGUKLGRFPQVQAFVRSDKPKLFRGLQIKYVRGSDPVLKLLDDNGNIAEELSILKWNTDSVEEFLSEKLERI

FRET energy transfer efficiency: 29.2%
estimated distance between donor and acceptor (FRET): 5.51 nm
B1: CFP-RDH11 (human retinol dehydrogenase 11 fused to cyan fluorescence protein) (enzyme)
chain: VELMFPLLLLLLPFLLYMAAPQIRKMLSSGVCTSTVQLPGKVVVVTGANTGIGKETAKELAQRGARVYLACRDVEKGELVAKEIQTTTGNQQVLVRKLDLSDTKSIRAFAKGFLAEEKHLHVLINNAGVMMCPYSKTADGFEMHIGVNHLGHFLLTHLLLEKLKESAPSRIVNVSSLAHHLGRIHFHNLQGEKFYNAGLAYCHSKLANILFTQELARRLKGSGVTTYSVHPGTVQSELVRHSSFMRWMWWLFSFFIKTPQQGAQTSLHCALTEGLEILSGNHFSDCHVAWVSAQARNETIARRLWDVSCDLLGLPID
